Results taken from PMC12401179, “Biophysical characterization and ion transport with cell‐based and proteoliposome reconstitution assays of invertebrate K^+‐Cl^− cotransporters” (FEBS Open Bio, 2025).

Legend:
[1] = target: T1, DmKCC (Drosophila melanogaster, UniProt Q7KVH5); test: K+ influx into proteoliposomes, fluorescent K+ probe (ION Potassium Green-2 TMA+); format: biochemical
T1 construct: gene kcc; full-length cDNA, N-terminal 8xHis and FLAG tags (no cleavage stated), Sf9 baculovirus expression, DDM/CHS Ni-NTA purified, reconstituted in azolectin proteoliposomes
T1 sequence (Q7KVH5 1-1028): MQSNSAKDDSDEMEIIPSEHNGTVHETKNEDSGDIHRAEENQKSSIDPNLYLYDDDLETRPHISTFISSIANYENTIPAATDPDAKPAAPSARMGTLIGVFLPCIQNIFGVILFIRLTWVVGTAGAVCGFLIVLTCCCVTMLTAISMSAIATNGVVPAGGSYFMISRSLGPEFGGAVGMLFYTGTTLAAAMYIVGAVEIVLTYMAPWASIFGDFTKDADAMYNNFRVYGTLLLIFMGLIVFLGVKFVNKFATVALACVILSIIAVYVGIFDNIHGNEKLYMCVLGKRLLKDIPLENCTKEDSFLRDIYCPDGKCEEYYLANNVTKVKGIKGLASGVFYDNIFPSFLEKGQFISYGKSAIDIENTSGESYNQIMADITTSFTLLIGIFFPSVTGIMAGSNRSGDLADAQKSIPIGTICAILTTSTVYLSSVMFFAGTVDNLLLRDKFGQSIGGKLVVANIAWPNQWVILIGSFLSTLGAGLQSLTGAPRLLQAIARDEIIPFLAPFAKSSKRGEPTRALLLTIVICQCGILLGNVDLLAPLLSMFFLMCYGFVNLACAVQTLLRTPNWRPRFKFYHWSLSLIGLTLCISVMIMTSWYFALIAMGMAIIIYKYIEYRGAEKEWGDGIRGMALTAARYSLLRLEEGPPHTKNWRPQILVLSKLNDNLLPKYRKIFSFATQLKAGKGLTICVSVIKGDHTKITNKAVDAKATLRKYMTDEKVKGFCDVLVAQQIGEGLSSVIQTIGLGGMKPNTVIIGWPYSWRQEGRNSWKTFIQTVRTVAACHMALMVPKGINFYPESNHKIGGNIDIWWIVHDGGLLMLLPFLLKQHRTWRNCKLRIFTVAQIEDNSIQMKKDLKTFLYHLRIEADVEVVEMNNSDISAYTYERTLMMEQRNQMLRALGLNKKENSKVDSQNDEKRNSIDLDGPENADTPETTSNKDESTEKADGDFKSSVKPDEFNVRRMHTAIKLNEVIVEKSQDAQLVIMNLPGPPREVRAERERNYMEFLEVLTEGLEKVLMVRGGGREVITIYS

[2] = target: Drosophila melanogaster K+-Cl- cotransporter (DmKCC) variant B (Drosophila melanogaster); test: SEC; Superdex 200 10/300 gel filtration in 20 mM HEPES pH 7.4, 150 mM NaCl, 50 mM KCl, 0.015% DDM, 0.003% CHS, 5% glycerol; elution profile compared with that of HvKCC, whose dimer was verified by SEC-MALLS
[3] = target: Hydra vulgaris K+-Cl- cotransporter (HvKCC) (Hydra vulgaris); test: SEC-MALS; SEC-MALLS; protein at 1.0 mg/mL on Superdex 200 10/300 in 20 mM HEPES pH 7.4, 150 mM NaCl, 50 mM KCl, 0.015% DDM, 0.003% CHS, 5% glycerol; protein conjugate analysis (ASTRA 6); single measurement

## O=S(=O)(O)c1cc(N=C=S)ccc1C=Cc1ccc(N=C=S)cc1S(=O)(=O)O [DIDS, 4,4′‐diisothiocyano‐2,2′‐stilbenedisulfonic acid]
[1]
  IC50: 25 nM

## Drosophila melanogaster K+-Cl- cotransporter (DmKCC) variant B (natural protein)
[2]
  stoichiometry N: 2

## Hydra vulgaris K+-Cl- cotransporter (HvKCC) (natural protein)
[3]
  stoichiometry N: 2
